# Data reported in article PMC10786891, “Massively parallel profiling of RNA-targeting CRISPR-Cas13d”.
# Residue numbers refer to the chain shown, from its start. Names may count otherwise.
# T1: EsCas13d, nuclease-dead (Eubacterium siraeum, UniProt B0MS50, R295A;H300A;R849A;H854A)
# T1 sequence: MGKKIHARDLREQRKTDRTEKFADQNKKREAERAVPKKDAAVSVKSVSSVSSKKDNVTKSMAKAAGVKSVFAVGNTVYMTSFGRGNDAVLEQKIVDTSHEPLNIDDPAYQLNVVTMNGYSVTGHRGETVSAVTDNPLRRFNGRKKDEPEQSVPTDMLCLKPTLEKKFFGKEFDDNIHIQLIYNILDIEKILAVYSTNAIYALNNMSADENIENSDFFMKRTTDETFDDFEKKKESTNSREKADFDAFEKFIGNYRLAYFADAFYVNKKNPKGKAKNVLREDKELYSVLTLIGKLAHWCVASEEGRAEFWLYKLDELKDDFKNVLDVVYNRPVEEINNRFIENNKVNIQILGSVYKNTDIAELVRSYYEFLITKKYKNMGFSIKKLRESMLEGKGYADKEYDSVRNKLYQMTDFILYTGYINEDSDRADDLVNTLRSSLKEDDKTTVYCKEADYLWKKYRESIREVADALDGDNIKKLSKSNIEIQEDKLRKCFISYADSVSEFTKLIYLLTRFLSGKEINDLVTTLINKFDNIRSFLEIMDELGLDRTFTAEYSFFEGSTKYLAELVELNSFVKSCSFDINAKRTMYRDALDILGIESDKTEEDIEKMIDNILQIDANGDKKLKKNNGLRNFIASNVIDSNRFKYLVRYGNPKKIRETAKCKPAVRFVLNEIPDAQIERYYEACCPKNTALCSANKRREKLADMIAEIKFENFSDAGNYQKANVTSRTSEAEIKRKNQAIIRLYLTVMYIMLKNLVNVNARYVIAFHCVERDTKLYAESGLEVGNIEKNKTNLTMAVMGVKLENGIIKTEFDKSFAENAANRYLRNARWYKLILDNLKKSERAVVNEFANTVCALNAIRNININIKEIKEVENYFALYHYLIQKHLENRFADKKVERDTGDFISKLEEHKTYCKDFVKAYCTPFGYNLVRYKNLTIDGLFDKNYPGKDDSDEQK
# B1: target 1 insG 3' of 19,insG 3' of 1 (mixed)
# RNA 1: CACCCGUGCAAAAAUGCAGGGGUCUAAAACUGAGCGGAUAACCUCUCUAUGG
# RNA 2: GGGAAUGGAUCCACAUCUACGAAUUCGUACCAUGAGAGAGGUUAUCCGCUCAGCCGAGAUCGGAAGAGCACACGU
# B2: target 1 del18 (mixed)
# RNA 1: B1 RNA 1
# RNA 2: GGGAAUGGAUCCACAUCUACGAAUUCGUACCAUGAGAGGUUAUCCGCUCACCGAGAUCGGAAGAGCACACGU
# B3: target 1 A1G,U10G (mixed)
# RNA 1: B1 RNA 1
# RNA 2: GGGAAUGGAUCCACAUCUACGAAUUCGUACCAUAGAGAGGUGAUCCGCUCGCCGAGAUCGGAAGAGCACACGU
# B4: target 1 C2A,A18U (mixed)
# RNA 1: B1 RNA 1
# RNA 2: B3 RNA 2 with A34U, G42U, C50A, G51A
# B5: target 1 U11C,A14G (mixed)
# RNA 1: B1 RNA 1
# RNA 2: B3 RNA 2 with A38G, U41C, G42U, G51A
# B6: target 1 U10A,G15U (mixed)
# RNA 1: B1 RNA 1
# RNA 2: B3 RNA 2 with G37U, G42A, G51A
# B7: target 1 C4G,G5U (mixed)
# RNA 1: B1 RNA 1
# RNA 2: B3 RNA 2 with G42U, G47U, C48G, G51A
# B8: target 1 insG 3' of 7,insG 3' of 6 (mixed)
# RNA 1: B1 RNA 1
# RNA 2: GGGAAUGGAUCCACAUCUACGAAUUCGUACCAUAGAGAGGUUAUCGCGGCUCACCGAGAUCGGAAGAGCACACGU
# B9: target 1 insC 3' of 12,insU 3' of 7 (mixed)
# RNA 1: B1 RNA 1
# RNA 2: B8 RNA 2 with U41C, A43U, U44A, C45U, G46C, C47U, G48C
# B10: target 1 insU 3' of 15,insU 3' of 5 (mixed)
# RNA 1: B1 RNA 1
# RNA 2: B8 RNA 2 with A38U, G39A, U41G, A43U, U44A, C45U, G46C, G49U
# B11: target 1 insG 3' of 19,insA 3' of 2 (mixed)
# RNA 1: B1 RNA 1
# RNA 2: B1 RNA 2 with G53A
# B12: target 1 A1C,U10G (mixed)
# RNA 1: B1 RNA 1
# RNA 2: B3 RNA 2 with G51C
# B13: target 1 insG 3' of 19,insC 3' of 1 (mixed)
# RNA 1: B1 RNA 1
# RNA 2: B1 RNA 2 with G53C
# B14: target 1 U10G (mixed)
# RNA 1: B1 RNA 1
# RNA 2: B3 RNA 2 with G51A
# B15: target 1 insA 3' of 11,insA 3' of 4 (mixed)
# RNA 1: B1 RNA 1
# RNA 2: B8 RNA 2 with U42A, A43U, U44A, C45U, G46C, G49C, C50A
# B16: target 1 insA 3' of 17,insG 3' of 2 (mixed)
# RNA 1: B1 RNA 1
# RNA 2: B1 RNA 2 with G34A, A35G, G36A, A52G, G53A
# B17: target 1 insC 3' of 20,insA 3' of 12 (mixed)
# RNA 1: B1 RNA 1
# RNA 2: GGGAAUGGAUCCACAUCUACGAAUUCGUACCACUAGAGAGGAUUAUCCGCUCACCGAGAUCGGAAGAGCACACGU
# B18: target 1 A1U,U19G (mixed)
# RNA 1: B1 RNA 1
# RNA 2: B3 RNA 2 with U33G, G42U, G51U
# B19: target 1 G12U,A14C (mixed)
# RNA 1: B1 RNA 1
# RNA 2: B3 RNA 2 with A38C, G40U, G42U, G51A
# B20: target 1 A14G,A16G (mixed)
# RNA 1: B1 RNA 1
# RNA 2: B3 RNA 2 with A36G, A38G, G42U, G51A
# B21: target 1 insU 3' of 12,insU 3' of 4 (mixed)
# RNA 1: B1 RNA 1
# RNA 2: B8 RNA 2 with A43U, U44A, C45U, G46C, G49C, C50U
# B22: target 1 A9U,A14G (mixed)
# RNA 1: B1 RNA 1
# RNA 2: B3 RNA 2 with A38G, G42U, A43U, G51A
# B23: target 1 insU 3' of 17,insC 3' of 8 (mixed)
# RNA 1: B1 RNA 1
# RNA 2: B17 RNA 2 with C33U, U34A, A35G, G36U, A42U, U44A, A45U, U46C
# B24: target 1 insA 3' of 22,insU 3' of 15 (mixed)
# RNA 1: B1 RNA 1
# RNA 2: B17 RNA 2 with C31A, A32C, C33A, A39U, G40A, A42G
# B25: target 1 insA 3' of 13,insA 3' of 3 (mixed)
# RNA 1: B1 RNA 1
# RNA 2: B8 RNA 2 with G40A, U41G, A43U, U44A, C45U, G46C, G49C, C50U, U51A
# B26: target 1 insG 3' of 19,insU 3' of 1 (mixed)
# RNA 1: B1 RNA 1
# RNA 2: B1 RNA 2 with G53U
# B27: target 1 G12A,G17U (mixed)
# RNA 1: B1 RNA 1
# RNA 2: B3 RNA 2 with G35U, G40A, G42U, G51A
# B28: target 1 insA 3' of 7,insU 3' of 7 (mixed)
# RNA 1: B1 RNA 1
# RNA 2: B8 RNA 2 with G46A, C47U, G48C
# B29: target 1 A1U,U10G (mixed)
# RNA 1: B1 RNA 1
# RNA 2: B3 RNA 2 with G51U
# B30: target 1 U3A,G17U (mixed)
# RNA 1: B1 RNA 1
# RNA 2: B3 RNA 2 with G35U, G42U, U49A, G51A
# B31: target 1 insA 3' of 11,insC 3' of 3 (mixed)
# RNA 1: B1 RNA 1
# RNA 2: B8 RNA 2 with U42A, A43U, U44A, C45U, G46C, G49C, C50U, U51C
# B32: target 1 insG 3' of 11,insG 3' of 8 (mixed)
# RNA 1: B1 RNA 1
# RNA 2: B8 RNA 2 with U42G, A43U, U44A, C45U, G48C
# B33: target 1 C4U,A14G (mixed)
# RNA 1: B1 RNA 1
# RNA 2: B3 RNA 2 with A38G, G42U, C48U, G51A
# Target: T1, EsCas13d, nuclease-dead
# Assay: crRNA (strand 1, pre-loaded); Mg2+; 40 mM Tris-HCl pH 7.5, 150 mM NaCl, 6 mM MgCl2, 1 mM DTT, 0.1% Tween-20, 0.2 mg/ml BSA; 25 C; 10 min per concentration, then washed
# Conditions: tags: His6-TwinStrep-SUMO cleaved; N-terminal SNAP kept (SNAP-Surface 488); label: 3' end held by stalled T7 RNA polymerase
row,Binder,Kd
1,B1,87 ± 26 nM
2,B2,42 ± 8 nM
3,B3,21.1 ± 1.1 nM
4,B4,24.2 ± 1.2 nM
5,B5,13.4 ± 0.6 nM
6,B6,56 ± 13 nM
7,B7,34.2 ± 2.7 nM
8,B8,8.54 ± 0.3 nM
9,B9,26.9 ± 1.9 nM
10,B10,35 ± 5 nM
11,B11,85 ± 26 nM
12,B12,26 ± 5 nM
13,B13,59 ± 7 nM
14,B14,19.9 ± 1.1 nM
15,B15,9.6 ± 0.6 nM
16,B16,17.3 ± 2.5 nM
17,B17,9 ± 0.5 nM

row,Binder,Kd
1,B18,63 ± 12 nM
2,B19,42 ± 6 nM
3,B20,34.8 ± 2.2 nM
4,B21,5.68 ± 0.27 nM
5,B22,17.7 ± 1.2 nM
6,B23,44 ± 8 nM
7,B24,19 ± 1.8 nM
8,B25,3.99 ± 0.33 nM
9,B26,63 ± 16 nM
10,B27,18.9 ± 1.4 nM
11,B28,6.31 ± 0.23 nM
12,B29,26.4 ± 2.4 nM
13,B30,25 ± 4 nM
14,B31,13.8 ± 0.6 nM
15,B32,33.3 ± 1.5 nM
16,B33,~60 nM
